We go through 1 molecule from patent US20020147151A1 (TRUSTEES OF BOSTON UNIVERSITY, published 2002).

The test deals with T1, native GST (UniProt P08515 1-218 = GST).
T1 construct: also called rGST; GST alone
Nature of the test: pull-down of 35S-labeled rIL-16 on GST-coated glutathione-Sepharose beads, autoradiography (control for non-specific binding). Here is the method:
Specificity of the interaction between rIL-16 and D3D4 was assessed by competition with an excess of unlabeled rIL-16. ³⁵S-labeled rIL-16 incubated with GST (lane 1); ³⁵S-labeled rIL-16 incubated with GST-D3D4 (lane 2); ³⁵S-labeled rIL-16 plus excess unlabelled rIL-16 incubated with GST-D3D4 (lane 3); ³⁵S-labeled rIL-16 plus 10 ug/ml peptide A (lane 4); ³⁵S-labeled rIL-16 plus 10 ug/ml peptide B (lane 5); ³⁵S-labeled rIL-16 plus 10 ug/ml peptide C (lane 6); ); ³⁵S-labeled rIL-16 plus 10 ug/ml peptide A and peptide B (lane 7). The arrow indicates the position of IL-16 on the gel. The identity of this band was re-confirmed by immunoblotting with anti-IL-16 antibody.
To investigate IL-16 interaction with the D3D4 of CD4, the GST-D3D4 fusion protein, or GST alone, was bound to the glutathione-conjugated Sepharose 4B beads. Five ul of the in vitro translation product containing ³⁵S-labeled rIL16 was added to 15 ul of the bead-bound proteins in 230 ul of PBS and 50 ul of NETN buffer (150 mM NaCl, 1 mM EDTA, 0.5% NP 40, and 50 mM Tris, pH 8.0). After incubating at 4° C. for 2 h, the beads were washed 3 times in NETN buffer. The GST-D3D4 or GST proteins were released from the beads by boiling in SDS gel loading buffer, and the supernatant was analyzed by 12% SDS-polyacrylamide gel electrophoresis (SDS-PAGE). The presence of ³⁵S-labeled mrIL16 was detected by autoradiography of the dried gel. […]

T1 sequence (P08515 whole entry): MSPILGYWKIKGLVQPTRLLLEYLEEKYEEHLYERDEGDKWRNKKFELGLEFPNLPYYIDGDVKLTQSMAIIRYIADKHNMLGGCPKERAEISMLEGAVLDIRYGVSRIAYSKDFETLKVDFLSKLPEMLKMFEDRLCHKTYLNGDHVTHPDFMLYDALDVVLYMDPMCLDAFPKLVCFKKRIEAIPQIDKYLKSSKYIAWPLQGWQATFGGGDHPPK

B1: 35S-labeled murine rIL-16 (in vitro transcription and translation product, C-terminal 119 amino acids) (ligand, mouse, UniProt O54824 1204-1322, looked up)
chain: DSAASASAASDISVESKEATVCTVTLEKTSAGLGFSLEGGKGSLHGDKPLTINRIFKGTEQGEMVQPGDEILQLAGTAVQGLTRFEAWNVIKALPDGPVTIVIRRTSLQCKQTTASADS
modifications: [35S] methionine
notes: domain: C-terminal 119 amino acids; also called radiolabeled murine IL-16; 35S-labeled rIL-16
Turning to B1, the binding result was “no binding”.
